In patent US20160009819A1 one finds EC50 (read off the curve) data, which are given here for ten molecules.

First the molecules themselves.
B1: 16B3 antibody (antibody, V domains shown)
VH: DVKLVESGGGLVQPGGSLKLSCTASGFTFSGYTMSWVRQTPEKRLELVAEISFARDRAFYPDTVKGRFTISRDNAKNTLYLQMSSLKSEDTAMYYCTRLGGRNHDYWYFDVWGTGTTVTVSS
VL: DIVLTQSPTSLAVSPGQRATISCRASESVEYYGTSLMQWYQQKPGQRPQLLIYAASNVESGVPARFSGSGSGTDFSLNIHPVEEDDIAVYFCQQSWKVPFTFGSGTKLEIK
B2: 16E7 antibody (antibody, V domains shown)
VH: B1 VH with D1E, T23A, G31S, A54T, D56S, T97A, R102N, H104Y
VL: B1 VL with P15L, Q49K, V89M
B3: 14E1 antibody (antibody, V domains shown)
VH: QVQLQQSGAELVKPGASVRLSCKASGYTFTKYTIHWVKQRSGQGLEWIGWFYPGSDSIKYNEKFKDKATLTADKSSRTVYMELSRLTSEDSAVYFCARHEEYTNSLAYWGQGTLVTVSA
VL: DIQMTQTTSSLSASLGDRVTISCRASQDISNYLNWYQQQPDGTVKLLIYYTSRLHSGVPSRFSGSGSGTDYSLTISNLEQEDIATYFCQQGYTLPWTFGGGTNLEIK
B4: 7D4 antibody (antibody, V domains shown)
VH: QIQLVQSGPELKKPGETVKISCKASGYTFTNYGMNWVKQAPGKDLKWMGWINTYSGVPTYADDFKGRFAFSLETSASTAYLQINNLKNEDTATYFCARFSYYGRHYFDYWGQGTTLTVSS
VL: DIVLTQSPASLAVSLGQRATISCKASQSVDYDGDSYMNWYQQKPGQPPQLLIYAASNLGSGIPARFSGSGSGTDFTLNIHPVEEEDAATYYCHQSTDDPPWTFGGGTKLEIK
B5: 14A1 antibody (antibody, V domains shown)
VH: B4 VH with D44G, L86F, T115A, V118A
VL: B4 VL with Q49K, G59K, H93Q, S95T
B6: 55A1 antibody (antibody, V domains shown)
VH: B4 VH with Q3H, D44G, D62G, F99R, S100G, H105R, Y109V, Q112T, L116V
VL: DIVLTQSPASLAVSLGQRATISCKASQSVDYDVDSYMHWYQQKPGQPPKLLIYAASNLASGIPARFSGGGSGTDFTLNIHPVEEEDVATYYCQQTIEDPPTFGGGTKLEIK
B7: 53A11 antibody (antibody, V domains shown)
VH: EVQLQQSGPELLKPGASVKISCKASGYTFTDYTMHWVKQSHGKSLEWIGGINPYYGGTTYNEKFKDKATLTVDKSSSTAYMELRSLTSEDSAVYYCAKGDYYGGSYNYWGQGTTLTVSS
VL: DIVLTQSLATLSVTPGDSVSLSCRASQDISNSLHWYQQKSHESPRLLIKYASQSISGIPSRFSGSGSGTDFTLSINSVETEDFGMYFCQQSNSWPYTFGGGTKLEIK
B8: 23H8 antibody (antibody, V domains shown)
VH: EVQLQQSGPELLKPGASVKISCKASGYTFTDNTIHWVKQSHGKSLEWIGHINPYYGGTNNNEKFKDKATLTVDKSSSTAYMELRSLTSEDSAIYYCARKGIYYSSPFDYWGQGTTLTVSS
VL: B3 VL with S30N, Q39K, Y49S, R53K, Q80R, I83F, Y92N, W96F, G100S
B9: 13B3 antibody (antibody, V domains shown)
VH: EVQLQQSGPELLKPGASVKISCKASGYTFTEYTMHWVKQSHGKSLEWIGSINPYYGGTSYNEKFKDKATLTVDKSSNTAYMEFRSLTSEDCAVYYCARYGNYVGYFDYWGQGTTLTVSS
VL: ENVLTQSPAIMSASLGEKVTMSCRASSSVHYMYWYQQKSDASPKLWIYYTSNLAPGVPDRFSGSGSGNSYSLTISSMEGEDAATYYCQQFTSSPYTFGGGTKLEIK
B10: 19E7 antibody (antibody, V domains shown)
VH: QVQLQQPGSVLVRPGASVKLSCKASGYTFTTYWMHWVKQRPGQGLEWIGEIHPYSGNNNNNEKFKGKATLTVDTSSSTAYVDLSRLTSEDSAVYYCARYDSNYVFAYWGQGTLVTVSA
VL: QIVLTQSPAIMSASPGEGVTITCSASSSVSYMHWFQQKPGTSPKLWIYSTSNLASGVPARFSGSGSGTSYSLTISRMEAEDAATYYCQQRDSYLTFGSGTKLEVK

Numbering of substitutions follows the chain as printed.

For the first experiment, the target named is T1, human [202-500]-mouse chimeric EL with C2 tag (mouse; human) (UniProt Q9WVG5).
T1 sequence: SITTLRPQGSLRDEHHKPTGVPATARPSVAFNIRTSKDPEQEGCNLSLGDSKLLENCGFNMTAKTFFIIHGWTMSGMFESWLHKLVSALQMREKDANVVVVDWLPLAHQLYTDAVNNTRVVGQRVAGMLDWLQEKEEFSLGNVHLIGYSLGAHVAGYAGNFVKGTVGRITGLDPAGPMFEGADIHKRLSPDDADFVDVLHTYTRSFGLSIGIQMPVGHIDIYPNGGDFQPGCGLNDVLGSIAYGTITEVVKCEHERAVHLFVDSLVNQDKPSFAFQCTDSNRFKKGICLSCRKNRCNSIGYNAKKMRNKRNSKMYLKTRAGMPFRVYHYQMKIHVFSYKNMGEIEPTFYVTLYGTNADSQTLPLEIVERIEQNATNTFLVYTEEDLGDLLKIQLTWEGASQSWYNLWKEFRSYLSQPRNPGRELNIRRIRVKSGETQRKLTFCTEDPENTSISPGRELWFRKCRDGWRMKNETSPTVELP
The experiment is described as follows: ELISA: antibody captured on anti-mouse IgG-Fc plate, C2-tagged EL heparin extract added, anti-C2-tag detection, A450 (Example 8).
For B1, the concentration giving a half-maximal response (EC50 (read off the curve)) was determined as 4 ng/mL.

B2: the 50% effective concentration (EC50 (read off the curve)) was 8 ng/mL. In turn, B3 came in with an EC50 (read off the curve) of 20 ng/mL.

A further experiment has as its target T2, human [1-157]-mouse chimeric EL with C2 tag (human; mouse) (UniProt Q9WVG5).
T2 sequence: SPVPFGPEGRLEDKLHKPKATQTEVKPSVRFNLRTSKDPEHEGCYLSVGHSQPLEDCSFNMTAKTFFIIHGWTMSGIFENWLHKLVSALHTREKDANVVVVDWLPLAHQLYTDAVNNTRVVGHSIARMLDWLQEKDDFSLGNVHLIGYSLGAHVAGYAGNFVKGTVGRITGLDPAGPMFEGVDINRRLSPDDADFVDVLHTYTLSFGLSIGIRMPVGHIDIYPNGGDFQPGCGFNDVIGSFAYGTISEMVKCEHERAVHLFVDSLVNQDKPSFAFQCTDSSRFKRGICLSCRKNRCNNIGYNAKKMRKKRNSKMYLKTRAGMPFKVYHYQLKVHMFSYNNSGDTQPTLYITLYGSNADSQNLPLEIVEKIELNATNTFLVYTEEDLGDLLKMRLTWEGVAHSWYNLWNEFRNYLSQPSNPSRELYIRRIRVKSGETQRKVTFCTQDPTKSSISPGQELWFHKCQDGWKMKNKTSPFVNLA
Described as above.
The molecule B4 returned an EC50 (read off the curve) of 6 ng/mL.

Molecule B5 showed an EC50 (read off the curve) of 7 ng/mL. On the same count and under the same terms, the result for B6 reads 4 ng/mL; that for B7, 6 ng/mL. In turn, B8 yielded an EC50 (read off the curve) of 4 ng/mL.

Consider B9, for which the half-maximal effective concentration (EC50 (read off the curve)) was found to be 4 ng/mL.

Another experiment deals with T3, human [1-305]-mouse chimeric EL with C2 tag (human; mouse) (UniProt Q9WVG5).
T3 sequence: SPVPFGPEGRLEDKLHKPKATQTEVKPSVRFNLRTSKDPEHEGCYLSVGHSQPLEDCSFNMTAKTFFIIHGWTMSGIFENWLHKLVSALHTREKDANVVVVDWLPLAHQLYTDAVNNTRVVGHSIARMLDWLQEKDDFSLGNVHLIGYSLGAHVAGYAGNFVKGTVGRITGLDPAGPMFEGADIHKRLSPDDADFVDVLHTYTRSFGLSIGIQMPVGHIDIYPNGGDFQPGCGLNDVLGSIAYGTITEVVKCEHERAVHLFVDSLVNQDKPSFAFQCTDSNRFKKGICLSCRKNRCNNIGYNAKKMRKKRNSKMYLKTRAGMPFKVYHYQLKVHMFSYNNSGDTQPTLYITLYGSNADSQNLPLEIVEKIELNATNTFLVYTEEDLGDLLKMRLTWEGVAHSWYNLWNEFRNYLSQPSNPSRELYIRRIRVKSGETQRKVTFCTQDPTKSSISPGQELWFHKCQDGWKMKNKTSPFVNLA
The description is as above.
In turn, B10 returned a concentration for a half-maximal effect (EC50 (read off the curve)) of 6 ng/mL.
